Test results as given in patent publication US20170306001A1.

Columns and labels:
[1] = target: DL06-HA, full length HA of A/duck/Laos/3295/2006(H5N1) (clade 2.3.4) (influenza A virus A/duck/Laos/3295/2006(H5N1)); experiment: cell-based or functional assay
[2] = target: native H5 HA from multiple H5N1 clades; experiment: cell-based or functional assay

B1: Mouse MAb 9F4 (antibody, V domains shown)
V domain 1: QQSEAELARPGASVKMSCKASGFTLTTFTIHWVKQRPGQGLEWIGYINPRSGYTDYNQKFKDNTTLTVDKSSSTAYMQLSSLTSEDSAVFYCARSYYDYDVFDYWGQGTTLTV
V domain 2: DVQMTQSPSSLSASLGGKVTITCTARQDINKYIAWYQHKPGKGPRLLIHYTSTLQPGIPSRFSGSGSGTDYSFTISNLEPEDIATYYCLQYDNLVTFGGGTK
- IC50, entry of HA-pseudotyped lentiviral particles into MDCK cells (luciferase) [1]: 0.01 µg/mL
- IC95, HApp neutralization [2]: 0.1 µg/mL
